The test addresses T1, IpaH7.8 wild-type (recombinant) (Shigella flexneri, UniProt P18014 2-565).
T1 sequence: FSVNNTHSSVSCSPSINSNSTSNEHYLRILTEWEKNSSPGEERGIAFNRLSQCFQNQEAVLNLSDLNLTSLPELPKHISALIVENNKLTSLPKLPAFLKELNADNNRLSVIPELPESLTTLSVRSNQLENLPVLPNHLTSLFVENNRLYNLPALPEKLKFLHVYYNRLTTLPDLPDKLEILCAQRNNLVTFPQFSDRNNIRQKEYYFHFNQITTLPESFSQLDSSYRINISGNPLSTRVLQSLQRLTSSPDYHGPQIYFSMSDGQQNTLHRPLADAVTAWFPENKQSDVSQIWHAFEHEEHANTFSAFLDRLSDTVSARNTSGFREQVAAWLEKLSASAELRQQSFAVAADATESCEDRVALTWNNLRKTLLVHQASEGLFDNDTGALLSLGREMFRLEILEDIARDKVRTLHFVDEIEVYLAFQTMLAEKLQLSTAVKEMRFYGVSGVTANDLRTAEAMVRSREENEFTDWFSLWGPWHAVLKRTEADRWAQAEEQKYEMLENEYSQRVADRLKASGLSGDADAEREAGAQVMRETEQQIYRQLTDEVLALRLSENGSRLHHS
As to the kind of experiment: MST.

The values that follow come from publication PMC9122893 (Cell host & microbe, 2021).

B1: hsGSDMD-1D4 (purified, dye-labelled) (natural protein)
chain: MGSAFERVVRRVVQELDHGGEFIPVTSLQSSTGFQPYCLVVRKPSSSWFWKPRYKCVNLSIKDILEPDAAEPDVQRGRSFHFYDAMDGQIQGSVELAAPGQAKIAGGAAVSDSSSTSMNVYSLSVDPNTWQTLLHERHLRQPEHKVLQQLRSRGDNVYVVTEVLQTQKEVEVTRTHKREGSGRFSLPGATCLQGEGQGHLSQKKTVTIPSGSTLAFRVAQLVIDSDLDVLLFPDKKQRTFQPPATGHKRSTSEGAWPQLPSGLSMMRCLHNFLTDGVPAEGAFTEDFQGLRAEVETISKELELLDRELCQLLLEGLEGVLRDQLALRALEEALEQGQSLGPVEPLDGPAGAVLECLVLSSGMLVPELAIPVVYLLGALTMLSETQHKLLAEALESQTLLGPLELVGSLLEQSAPWQERSTMSLPPGLLGNSWGEGAPAWVLLDECGLELGEDTPHVCWEPQAQGRMCALYASLALLSGLSQEPH
modifications: labelled with the 2nd generation red-maleimide dye (Nanotemper protein labeling kit)
As a reminder, the Kd is a measure of binding affinity in units of concentration. With B1, the Kd amounted to 194 nM.
